Changes are numbered by the printed parent chain. Blank lines part the entries; values can stand above or below the binder they belong to.
Columns and labels:
Test in all cases: cytokine release
[1] = target: T1, KRAS G12V (same sequence in NRAS and HRAS G12V) peptide on HLA-A*11:01 (human)
T1 peptide: VVVGAVGVGK

[2] = target: T2, KRAS G12D (same sequence in NRAS and HRAS G12D) peptide on HLA-A*11:01 (human)
T2 peptide: VVVGADGVGK

[3] = target: T3, KRAS G12V (same sequence in NRAS and HRAS G12V) peptide on HLA-A*11:01 (human)
T3 peptide: VVGAVGVGK

[4] = target: T4, KRAS G12D (same sequence in NRAS and HRAS G12D) peptide on HLA-A*11:01 (human)
T4 peptide: VVGADGVGK

B1: A11_TCR16 (TCR, V domains shown)
Valpha: KDQVFQPSTVASSEGAVVEIFCNHSVSNAYNFFWYLHFPGCAPRLLVKGSKPSQQGRYNMTYERFSSSLLILQVREADAAVYYCVLNRDDKIIFGKGTRLHILP
Vbeta: DAGVIQSPRHEVTEMGQEVTLRCKPISGHDYLFWYRQTMMRGLELLIYFNNNVPIDDSGMPEDRFSAKMPNASFSTLKIQPSEPRDSAVYFCASSRLGPYNEQFFGPGTRLTVL
binding result [1]: no recognition
binding result [2]: recognises
binding result [3]: no recognition
binding result [4]: no recognition

B2: TCR18 (TCR, V domains shown)
Valpha: SQQGEEDPQALSIQEGENATMNCSYKTSINNLQWYRQNSGRGLVHLILIRSNEREKHSGRLRVTLDTSKKSSSLLITASRAADTASYFCATDEGGGADGLTFGKGTHLIIQP
Vbeta: DSGVTQTPKHLITATGQRVTLRCSPRSGDLSVYWYQQSLDQGLQFLIQYYNGEERAKGNILERFSAQQFPDLHSELNLSSLELGDSALYFCASSVTWGPYEQYFGPGTRLTVT
binding result [1]: no recognition
binding result [2]: no recognition
binding result [3]: no recognition
binding result [4]: no recognition

B4: A11_TCR22 (TCR, V domains shown)
Valpha: QKEVEQDPGPLSVPEGAIVSLNCTYSNSAFQYFMWYRQYSRKGPELLMYTYSSGNKEDGRFTAQVDKSSKYISLFIRDSQPSDSATYLCAMSAGAAGNKLTFGGGTRVLVKP
Vbeta: EADIYQTPRYLVIGTGKKITLECSQTMGHDKMYWYQQDPGMELHLIHYSYGVNSTEKGDLSSESTVSRIRTEHFPLTLESARPSHTSQYLCASSQGLYNEQFFGPGTRLTVL
binding result [1]: no recognition
binding result [2]: recognises
binding result [3]: no recognition
binding result [4]: no recognition

B5: TCR21 (TCR, V domains shown)
Valpha: B4 Valpha with A93G, A95N, K99M, V108L, L109M
Vbeta: B4 Vbeta with Q95V
binding result [1]: no recognition
binding result [2]: recognises
binding result [3]: no recognition
binding result [4]: no recognition

B10: TCR17 (TCR, V domains shown)
Valpha: KVTQAQTEISVVEKEDVTLDCVYETRDTTYYLFWYKQPPSGELVFLIRRNSFDEQNEISGRYSWNFQKSTSSFNFTITASQVVDSAVYFCALSEVHASGGSYIPTFGRGTSLIVHP
Vbeta: DVKVTQSSRYLVKRTGEKVFLECVQDMDHENMFWYRQDPGLGLRLIYFSYDVKMKEKGDIPEGYSVSREKKERFSLILESASTNQTSMYLCASSLGAGQHNSPLHFGNGTRLTVT
binding result [1]: no recognition
binding result [2]: recognises
binding result [3]: no recognition
binding result [4]: no recognition

B12: TCR19 (TCR, V domains shown)
Valpha: DQQVKQNSPSLSVQEGRISILNCDYTNSMFDYFLWYKKYPAEGPTFLISISSIKDKNEDGRFTVFLNKSAKHLSLHIVPSQPGDSAVYFCAASANNNDMRFGAGTRLTVKP
Vbeta: DAGVIQSPRHEVTEMGQEVTLRCKPISGHDYLFWYRQTMMRGLELLIYFNNNVPIDDSGMPEDRFSAKMPNASFSTLKIQPSEPRDSAVYFCASSPTGGGMLGQYFGPGTRLTVL
binding result [2]: no recognition
binding result [3]: recognises
binding result [4]: no recognition

Second part, the binder after the results:

binding result [1]: recognises
binding result [3]: recognises
B3: A11 KRAS TCR_141_6 (TCR, V domains shown)
Valpha: B2 Valpha with E93V, G94F, G95Q, D98Q, G99K, T101V, K104Q, H107R, I109T, Q111N
Vbeta: EAGVAQSPRYKIIEKRQSVAFWCNPISGHATLYWYQQILGQGPKLLIQFQNNGVVDDSQLPKDRFSAERLKGVDSTLKIQPAKLEDSAVYLCASSIETSYEQYFGPGTRLTVT

binding result [1]: recognises
binding result [2]: no recognition
binding result [3]: no recognition
binding result [4]: no recognition
B6: TCR23 (TCR, V domains shown)
Valpha: TQLLEQSPQFLSIQEGENLTVYCNSSSVFSSLQWYRQEPGEGPVLLVTVVTGGEVKKLKRLTFQFGDARKDSSLHITAAQPGDTGLYLCAGVREAGGTSYGKLTFGQGTILTVHP
Vbeta: DAEITQSPRHKITETGRQVTLACHQTWNHNNMFWYRQDLGHGLRLIHYSYGVQDTNKGEVSDGYSVSRSNTEDLPLTLESAASSQTSVYFCASSEYVGAHEQYFGPGTRLTVT

binding result [2]: recognises
B7: A11 KRAS TCR_129_2 (TCR, V domains shown)
Valpha: SQQGEEDPQALSIQEGENATMNCSYKTSINNLQWYRQNSGRGLVHLILIRSNEREKHSGRLRVTLDTSKKSSSLLITASRAADTASYFCASSGGGADGLTFGKGTHLIIQP
Vbeta: KAGVTQTPRYLIKTRGQQVTLSCSPISGHRSVSWYQQTPGQGLQFLFEYFSETQRNKGNFPGRFSGRQFSNSRSEMNVSTLELGDSALYLCASSLGGAGETQYFGPGTRLLVL

binding result [1]: recognises
binding result [2]: no recognition
binding result [4]: no recognition
B8: A11 KRAS TCR_220_21 (TCR, V domains shown)
Valpha: GEDVEQSLFLSVREGDSSVINCTYTDSSSTYLYWYKQEPGAGLQLLTYIFSNMDMKQDQRLTVLLNKKDKHLSLRIADTQTGDSAIYFCAEPIIGGNTPLVFGKGTRLSVIA
Vbeta: GAGVSQSPRYKVAKRGQDVALRCDPISGHVSLFWYQQALGQGPEFLTYFQNEAQLDKSGLPSDRFFAERPEGSVSTLKIQRTQQEDSAVYLCASSSEGLAGGPTAGELFFGEGSRLTVL

binding result [1]: recognises
binding result [2]: no recognition
binding result [3]: recognises
binding result [4]: no recognition
B9: TCR20 (TCR, V domains shown)
Valpha: DAKTTQPPSMDCAEGRAANLPCNHSTISGNEYVYWYRQIHSQGPQYIIHGLKNNETNEMASLIITEDRKSSTLILPHATLRDTAVYYCIVRLNSGNTPLVFGKGTRLSVIA
Vbeta: EAGVAQSPRYKIIEKRQSVAFWCNPISGHATLYWYQQILGQGPKLLIQFQNNGVVDDSQLPKDRFSAERLKGVDSTLKIQPAKLEDSAVYLCASSPTFPAGDRDTQYFGPGTRLTVL

binding result [2]: recognises
B11: A11 KRAS TCR_141_7 (TCR, V domains shown)
Valpha: AQSVTQPDIHITVSEGASLELRCNYSYGATPYLFWYVQSPGQGLQLLLKYFSGDTLVQGIKGFEAEFKRSQSSFNLRKPSVHWSDAAEYFCAVTGGGNKLTFGTGTQLKVEL
Vbeta: DTGVSQDPRHKITKRGQNVTFRCDPISEHNRLYWYRQTLGQGPEFLTYFQNEAQLEKSRLLSDRFSAERPKGSFSTLEIQRTEQGDSAMYLCASSLAGETGELFFGEGSRLTVL

binding result [1]: recognises
binding result [3]: recognises
B13: A11 KRAS TCR_129_8 (TCR, V domains shown)
Valpha: B12 Valpha with S93N, A94T, N96A, N97G, D98K, M99S, R100T, A103D, R106T
Vbeta: DTGVSQDPRHKITKRGQNVTFRCDPISEHNRLYWYRQTLGQGPEFLTYFQNEAQLEKSRLLSDRFSAERPKGSFSTLEIQRTEQGDSAMYLCASSTGTAEQYFGPGTRLTVT

— US20250114433A1 (published 2025)
